# From IntAct's records for PubMed 22416126
# B1: Paraspeckle component 1 (Homo sapiens), Q8WXF1-1 (parent)
# chain: MMLRGNLKQVRIEKNPARLRALESAVGESEPAAAAAMALALAGEPAPPAPAPPEDHPDEEMGFTIDIKSFLKPGEKTYTQRCRLFVGNLPTDITEEDFKRLFERYGEPSEVFINRDRGFGFIRLESRTLAEIAKAELDGTILKSRPLRIRFATHGAALTVKNLSPVVSNELLEQAFSQFGPVEKAVVVVDDRGRATGKGFVEFAAKPPARKALERCGDGAFLLTTTPRPVIVEPMEQFDDEDGLPEKLMQKTQQYHKEREQPPRFAQPGTFEFEYASRWKALDEMEKQQREQVDRNIREAKEKLEAEMEAARHEHQLMLMRQDLMRRQEELRRLEELRNQELQKRKQIQLRHEEEHRRREEEMIRHREQEELRRQQEGFKPNYMENREQEMRMGDMGPRGAINMGDAFSPAPAGNQGPPPMMGMNMNNRATIPGPPMGPGPAMGPEGAANMGTPMMPDNGAVHNDRFPQGPPSQMGSPMGSRTGSETPQAPMSGVGPVSGGPGGFGRGSQGGNFEGPNKRRRY
# partner: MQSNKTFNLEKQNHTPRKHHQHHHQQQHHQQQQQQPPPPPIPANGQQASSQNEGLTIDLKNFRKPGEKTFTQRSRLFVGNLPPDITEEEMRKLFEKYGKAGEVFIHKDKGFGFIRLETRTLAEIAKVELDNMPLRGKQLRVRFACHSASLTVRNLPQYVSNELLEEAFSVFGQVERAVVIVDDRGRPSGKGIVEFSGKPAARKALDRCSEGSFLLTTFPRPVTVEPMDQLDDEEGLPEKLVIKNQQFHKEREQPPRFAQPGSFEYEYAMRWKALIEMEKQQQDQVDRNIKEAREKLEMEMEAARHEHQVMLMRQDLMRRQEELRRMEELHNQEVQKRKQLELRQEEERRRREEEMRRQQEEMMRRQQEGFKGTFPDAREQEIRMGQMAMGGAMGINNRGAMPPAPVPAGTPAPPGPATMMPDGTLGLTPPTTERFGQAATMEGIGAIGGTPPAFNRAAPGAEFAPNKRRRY
# B2: Non-POU domain-containing octamer-binding protein (Homo sapiens), Q15233 (parent)
# chain: B1 partner
# partner: B1 chain
# Variants of: B1
# Details: with nono_human NONO
row,Variant,effect of a mutation on the interaction
1,MMLRGNLKQVRIEKNPARLRALESAVGESEPAAAAAMALALAGEPAPPAPAPPEDHPDEEMGFTIDIKSFLKPGEKTYTQRCRLFVGNLPTDITEEDFKRLFERYGEPSEVFINRDRGFGFIRLESRTLAEIAKAELDGTILKSRPLRIRFATHGAALTVKNLSPVVSNELLEQAFSQFGPVEKAVVVVDDRGRATGKGFVEFAAKPPARKALERCGDGAFLLTTTPRPVIVEPMEQFDDEDGLPEKLMQKTQQYHKEREQPPRFAQPGTFEFEAASRAKALDEMEKQQREQVDRNIREAKEKLEAEMEAARHEHQLMLMRQDLMRRQEELRRLEELRNQELQKRKQIQLRHEEEHRRREEEMIRHREQEELRRQQEGFKPNYMENREQEMRMGDMGPRGAINMGDAFSPAPAGNQGPPPMMGMNMNNRATIPGPPMGPGPAMGPEGAANMGTPMMPDNGAVHNDRFPQGPPSQMGSPMGSRTGSETPQAPMSGVGPVSGGPGGFGRGSQGGNFEGPNKRRRY [Y275A;W279A],decreasing interaction strength

# Variants of: B2
# Details: with PSPC1, Q8WXF1-1
row,Variant,effect of a mutation on the interaction
1,MQSNKTFNLEKQNHTPRKHHQHHHQQQHHQQQQQQPPPPPIPANGQQASSQNEGLTIDLKNFRKPGEKTFTQRSRLFVGNLPPDITEEEMRKLFEKYGKAGEVFIHKDKGFGFIRLETRTLAEIAKVELDNMPLRGKQLRVRFACHSASLTVRNLPQYVSNELLEEAFSVFGQVERAVVIVDDRGRPSGKGIVEFSGKPAARKALDRCSEGSFLLTTFPRPVTVEPMDQLDDEEGLPEKLVIKNQQFHKEREQPPRFAQPGSFEYEAAMRAKALIEMEKQQQDQVDRNIKEAREKLEMEMEAARHEHQVMLMRQDLMRRQEELRRMEELHNQEVQKRKQLELRQEEERRRREEEMRRQQEEMMRRQQEGFKGTFPDAREQEIRMGQMAMGGAMGINNRGAMPPAPVPAGTPAPPGPATMMPDGTLGLTPPTTERFGQAATMEGIGAIGGTPPAFNRAAPGAEFAPNKRRRY [Y267A;W271A],decreasing interaction strength
